Source: the supplement of paper PMC10126150
± gives the standard deviation of the averaged measurements.

tested on: ATP; experiment: switch fluorescence ratio, 500 uM ATP over buffer (Cy3 cluster intensity, sum of 5 cycles each) (fold (ratio)); higher = stronger signal-on switching upon ATP binding; sequences stand for … in TCGTCGGCAGCGTCAGATGTGTATAAGAGACAGTTTTTTTTTTTTTTTTTTTTTTTTT…TC; conditions: aptamer strand: ATP DNA aptamer (quencher-CACCTGGGGGAGTATTGCGGAGGAAGG + anchor), 100 nM annealed; ATP concentration: 500 uM
Outline: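 The fluorescence ratio divides summed target-cycle Cy3 intensity by summed buffer-cycle Cy3 intensity for each cluster and is averaged per switch-domain sequence. Cy3-labelled switching-strand clusters on a modified Illumina MiSeq flow-cell were annealed to 100 nM quencher-labelled ATP aptamer, then imaged in selection buffer and again after 15 min with 500 uM ATP at 22 °C. Five such cycles were run, with NaOH stripping and re-annealing between them, and clusters outside 100-1000 RFU were excluded.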
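Also: ATP exposure 15 min at 22 °C before imaging.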

Sequence	switch fluorescence ratio
GTTCTAGATT	1.03 ± 0.067
GTTCTAGGAG	1 ± 0.019
GTTCTAGGTT	0.9961 ± 0.0044
GTTCTATGC	1 ± 0.079
GTTCTCAGAT	0.982 ± 0.013
GTTCTGGGCT	0.973 ± 0.016
GTTCTGGGGC	0.986 ± 0.028
GTTGAAACGT	1.06 ± 0.023
GTTGAAGG	0.9986 ± 0.0032
GTTGAATGGG	0.977 ± 0.011
GTTGAGAGGA	0.9636 ± 0.0018
GTTGAGAGTT	1.01 ± 0.015
GTTGAGGAGG	0.9891 ± 0.0086
GTTGATCCTT	0.9987 ± 0.0075
GTTGATCTGG	1.01 ± 0.011
GTTGATTAGC	0.981 ± 0.077
GTTGATTATG	0.995 ± 0.014
GTTGCAGCTG	0.962 ± 0.037
GTTGCAGTTA	0.9986 ± 0.0029
GTTGCATTAT	1.028 ± 0.0041
GTTGCCAAAG	0.9726 ± 0.0022
GTTGCGAATT	0.971 ± 0.038
GTTGCGCACA	1.024 ± 0.0097
GTTGCTGTTT	1 ± 0.048
GTTGGAAACA	0.945 ± 0.01

Sequence	switch fluorescence ratio
GTTGGAAGCA	1.1 ± 0.18
GTTGGAATGG	1.01 ± 0.014
GTTGGAGGGA	1.01 ± 0.032
GTTGGAGTGT	0.9511 ± 0.0068
GTTGGATAGG	1.01 ± 0.016
GTTGGATGGA	0.9966 ± 0.0062
GTTGGCAGGC	1.03 ± 0.028
GTTGGCATTT	1.05 ± 0.092
GTTGGCGGGA	1.02 ± 0.042
GTTGGGACTG	1 ± 0.055
GTTGGGAGCC	0.99 ± 0.01
GTTGGGATAA	1 ± 0.038
GTTGGGCCCA	1 ± 0.016
GTTGGGCCGT	0.987 ± 0.038
GTTGGGCTAT	0.9916 ± 0.0024
GTTGGGGGAC	1.09 ± 0.086
GTTGGGGGCA	0.968 ± 0.049
GTTGGGGTAT	1.06 ± 0.11
GTTGGGGTCA	0.988 ± 0.011
GTTGGGGTCG	0.998 ± 0.037
GTTGGGGTGA	1.05 ± 0.02
GTTGGGTATC	0.998 ± 0.023
GTTGGTCTAC	1.04 ± 0.018
GTTGGTGCGG	0.999 ± 0.034
GTTGGTGGCT	0.9581 ± 0.0026

Sequence	switch fluorescence ratio
GTTGGTGGGG	0.957 ± 0.035
GTTGTAATAG	1.09 ± 0.031
GTTGTACTGG	0.944 ± 0.03
GTTGTACTTG	0.988 ± 0.005
GTTGTAGGTG	1.057 ± 0.0014
GTTGTAGTCT	1.02 ± 0.023
GTTGTAGTTG	0.98387 ± 0.00037
GTTGTATCGG	0.991 ± 0.021
GTTGTCAGTA	0.9836 ± 0.005
GTTGTCATGC	1.02 ± 0.033
GTTGTCGCTT	0.9811 ± 0.0057
GTTGTCGTAT	0.974 ± 0.051
GTTGTCTCCA	0.985 ± 0.015
GTTGTGCGTA	0.994 ± 0.031
GTTGTGGCGG	0.97 ± 0.021
GTTGTGGGCG	0.977 ± 0.12
GTTGTGGTTC	0.96755 ± 0.00092
GTTGTGTATT	0.998 ± 0.022
GTTGTTAGGA	0.961 ± 0.02
GTTGTTATGT	1.01 ± 0.015
GTTGTTATTG	1.01 ± 0.021
GTTGTTGAAG	1.009 ± 0.0011
GTTGTTGCTA	0.99 ± 0.034
GTTGTTTGAT	0.997 ± 0.052
GTTGTTTGTA	0.971 ± 0.021

Sequence	switch fluorescence ratio
GTTGTTTGTT	0.978 ± 0.015
GTTGTTTTGA	0.994 ± 0.022
GTTTAAAACG	0.9961 ± 0.0073
GTTTAAAATG	1 ± 0.024
GTTTAAACGT	1.02 ± 0.021
GTTTAATATT	0.99 ± 0.026
GTTTAATGGG	0.999 ± 0.037
GTTTAATTTG	1 ± 0.025
GTTTACGTGG	1.01 ± 0.015
GTTTACTCTT	0.996 ± 0.025
GTTTAGAGCG	1.026 ± 0.01
GTTTAGGGTA	1.01 ± 0.051
GTTTATAGGT	0.9815 ± 0.0077
GTTTATATAT	1.03 ± 0.035
GTTTATCATT	0.982 ± 0.011
GTTTATCCGT	0.996 ± 0.055
GTTTATGTTA	1.017 ± 0.0018
GTTTCAAACG	0.971 ± 0.025
GTTTCAATGC	1.31 ± 0.1
GTTTCCAGGT	1.16 ± 0.017
GTTTCCATGG	0.973 ± 0.033
GTTTCGCCGT	1.046 ± 0.0054
GTTTCGGTTG	0.972 ± 0.05
GTTTCTGGTG	1.13 ± 0.064
GTTTCTTGGG	0.995 ± 0.056

Sequence	switch fluorescence ratio
GTTTCTTTAC	0.988 ± 0.058
GTTTCTTTGT	0.986 ± 0.049
GTTTGCAAGT	1.011 ± 0.0072
GTTTGCCCAA	0.987 ± 0.037
GTTTGCCCTT	1.06 ± 0.1
GTTTGCCTCT	0.995 ± 0.012
GTTTGCGCTT	1.01 ± 0.021
GTTTGCGGCA	1.01 ± 0.027
GTTTGGGAAA	0.988 ± 0.036
GTTTGGGCCG	1.07 ± 0.028
GTTTGGGTTG	0.989 ± 0.019
GTTTGGTAGT	0.979 ± 0.038
GTTTGTTAAT	1.007 ± 0.0044
GTTTGTTTAA	0.981 ± 0.017
GTTTTAAACA	1 ± 0.034
GTTTTAAAGG	0.984 ± 0.031
GTTTTAACAT	0.9895 ± 0.0073
GTTTTAAGGG	0.99 ± 0.016
GTTTTACGCG	1 ± 0.007
GTTTTAGAGG	1.01 ± 0.015
GTTTTAGCCA	0.97 ± 0.013
GTTTTAGGCT	0.973 ± 0.061
GTTTTAGTGT	0.98716 ± 0.00058
GTTTTAGTTT	0.987 ± 0.037
GTTTTATAGG	0.965 ± 0.021

Sequence	switch fluorescence ratio
GTTTTATGAG	0.959 ± 0.014
GTTTTATGGA	0.983 ± 0.034
GTTTTATTTT	1 ± 0.047
GTTTTCAAAG	0.973 ± 0.037
GTTTTCCCGT	1.03 ± 0.027
GTTTTCGCGA	1.06 ± 0.04
GTTTTCGGGA	1.03 ± 0.013
GTTTTCGGGT	1.01 ± 0.052
GTTTTCTCAT	0.989 ± 0.029
GTTTTCTGAG	0.9658 ± 0.0089
GTTTTGACAT	0.993 ± 0.0013
GTTTTGATGG	1 ± 0.019
GTTTTGATTG	1 ± 0.04
GTTTTGGAGT	1.05 ± 0.047
GTTTTGGGCT	1.01 ± 0.032
GTTTTGGTAC	1.01 ± 0.038
GTTTTGTCAA	1.02 ± 0.0038
GTTTTGTCAT	1.01 ± 0.035
GTTTTGTGTA	1.01 ± 0.074
GTTTTGTTAT	1.01 ± 0.018
GTTTTTAGAA	0.994 ± 0.031
GTTTTTATAT	1.03 ± 0.015
GTTTTTATTT	0.976 ± 0.031
GTTTTTCGAT	1.02 ± 0.001
GTTTTTCTTA	0.978 ± 0.037

Sequence	switch fluorescence ratio
GTTTTTCTTT	0.988 ± 0.024
GTTTTTGCTA	1.01 ± 0.028
GTTTTTGGTA	0.986 ± 0.021
GTTTTTGTAA	1.02 ± 0.052
GTTTTTGTCA	1.021 ± 0.008
GTTTTTGTCG	1.07 ± 0.056
GTTTTTTAGG	0.978 ± 0.0056
GTTTTTTATT	0.996 ± 0.033
GTTTTTTCAT	1.02 ± 0.023
GTTTTTTGTG	0.986 ± 0.013
TAAAAAAGG	0.997 ± 0.042
TAAAAAAGTT	1.12 ± 0.26
TAAAAAATAG	1.043 ± 0.0086
TAAAAACCTT	1.43 ± 0.35
TAAAAAGA	0.9496 ± 0.005
TAAAAAGATG	1.02 ± 0.044
TAAAAAGGGA	1.02 ± 0.02
TAAAAAGGGG	0.998 ± 0.012
TAAAAAGTAT	1 ± 0.015
TAAAAATATT	0.961 ± 0.03
TAAAAATCGT	0.997 ± 0.021
TAAAAATTAT	1 ± 0.028
TAAAAGATTT	1.01 ± 0.037
TAAAAGCTGA	0.989 ± 0.042
TAAAAGGACT	1.03 ± 0.034

Sequence	switch fluorescence ratio
TAAAAGGGGT	1.01 ± 0.05
TAAAATACA	0.983 ± 0.019
TAAAATAGTC	1.02 ± 0.034
TAAAATATGG	1.06 ± 0.11
TAAAATGGGG	1 ± 0.022
TAAAATTTAA	1.01 ± 0.05
TAAAATTTTT	1.002 ± 0.01
TAAACACGTG	0.987 ± 0.053
TAAACAGTGA	1.01 ± 0.038
TAAACCGTGG	1.02 ± 0.024
TAAACCTAGC	1.46 ± 0.062
TAAACGCGGG	1.04 ± 0.093
TAAACGCGTA	0.998 ± 0.029
TAAACGTATT	1.14 ± 0.13
TAAACTAAAA	0.97499 ± 3.2e-05
TAAACTCCA	1.05 ± 0.042
TAAAGAGGGT	1 ± 0.033
TAAAGATTTC	1.01 ± 0.069
TAAAGATTTT	1.01 ± 0.041
TAAAGCAGGA	0.993 ± 0.03
TAAAGCATGG	0.98 ± 0.019
TAAAGCTAGG	0.995 ± 0.065
TAAAGGATAT	1.01 ± 0.014
TAAAGGCTAC	1.17 ± 0.2
TAAAGGGAGC	1.12 ± 0.19
